From paper PMC3477299 (ACS chemical biology, 2012)
Read-outs that look alike come from different tables or passages of the source.

How the values were obtained:
[1] = target: T1, N-terminal His-tagged Human 4RON tau (human, UniProt P10636-6 1-383); experiment: ELISA
[2] = target: T1, N-terminal His-tagged Human 4RON tau; experiment: ELISA; remark: listed apart in the source

IC50 [1]: 59 µM | IC50 [2]: 3 µM
B1: Hsp90β (HSP90AB1) (natural protein)
chain: not shown
